Measured values as given in patent publication US20140242061.

Target: T1, human macrophage mannose receptor (MMR), P22897
T1 chain: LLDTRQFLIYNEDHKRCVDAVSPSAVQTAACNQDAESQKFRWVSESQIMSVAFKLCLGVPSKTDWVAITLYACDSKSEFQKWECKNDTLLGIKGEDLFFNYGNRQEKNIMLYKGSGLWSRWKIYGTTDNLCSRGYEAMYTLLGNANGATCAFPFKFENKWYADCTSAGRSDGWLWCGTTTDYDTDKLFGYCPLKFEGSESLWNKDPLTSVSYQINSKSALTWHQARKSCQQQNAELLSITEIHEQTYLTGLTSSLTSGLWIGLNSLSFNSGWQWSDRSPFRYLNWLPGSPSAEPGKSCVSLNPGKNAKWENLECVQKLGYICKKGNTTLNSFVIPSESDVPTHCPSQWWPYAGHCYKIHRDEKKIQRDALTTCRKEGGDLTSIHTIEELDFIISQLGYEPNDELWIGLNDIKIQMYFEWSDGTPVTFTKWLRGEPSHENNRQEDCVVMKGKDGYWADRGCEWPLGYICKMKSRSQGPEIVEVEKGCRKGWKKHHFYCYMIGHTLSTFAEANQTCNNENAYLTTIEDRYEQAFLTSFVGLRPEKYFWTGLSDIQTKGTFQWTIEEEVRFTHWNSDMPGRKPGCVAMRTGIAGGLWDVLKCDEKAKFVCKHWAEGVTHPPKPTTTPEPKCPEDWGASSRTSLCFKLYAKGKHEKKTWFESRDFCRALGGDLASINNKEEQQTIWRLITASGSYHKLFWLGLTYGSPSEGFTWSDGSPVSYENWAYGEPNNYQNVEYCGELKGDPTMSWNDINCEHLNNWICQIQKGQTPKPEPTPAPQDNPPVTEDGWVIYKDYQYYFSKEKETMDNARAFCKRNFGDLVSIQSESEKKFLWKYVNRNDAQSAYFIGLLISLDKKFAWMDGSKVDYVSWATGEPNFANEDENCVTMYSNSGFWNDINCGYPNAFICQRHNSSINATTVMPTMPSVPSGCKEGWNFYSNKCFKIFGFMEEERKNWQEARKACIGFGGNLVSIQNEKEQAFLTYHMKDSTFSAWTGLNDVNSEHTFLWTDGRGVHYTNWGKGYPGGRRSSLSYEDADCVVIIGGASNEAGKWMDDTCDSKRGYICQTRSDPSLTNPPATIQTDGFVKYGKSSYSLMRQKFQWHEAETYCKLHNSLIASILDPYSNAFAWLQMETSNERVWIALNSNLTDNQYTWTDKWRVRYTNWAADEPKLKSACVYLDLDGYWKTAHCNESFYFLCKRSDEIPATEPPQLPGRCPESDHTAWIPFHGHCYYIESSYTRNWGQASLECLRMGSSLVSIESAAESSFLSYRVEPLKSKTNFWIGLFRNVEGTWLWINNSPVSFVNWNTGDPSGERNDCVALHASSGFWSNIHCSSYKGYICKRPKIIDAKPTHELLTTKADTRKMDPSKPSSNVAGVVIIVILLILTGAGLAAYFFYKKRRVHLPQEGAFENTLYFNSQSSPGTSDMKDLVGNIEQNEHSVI

B1: velaglucerase alfa (protein)
chain: ARPCIPKSFGYSSVVCVCNATYCDSFDPPTFPALGTFSRYESTRSGRRMELSMGPIQANHTGTGLLLTLQPEQKFQKVKGFGGAMTDAAALNILALSPPAQNLLLKSYFSEEGIGYNIIRVPMASCDFSIRTYTYADTPDDFQLHNFSLPEEDTKLKIPLIHRALQLAQRPVSLLASPWTSPTWLKTNGAVNGKGSLKGQPGDIYHQTWARYFVKFLDAYAEHKLQFWAVTAENEPSAGLLSGYPFQCLGFTPEHQRDFIARDLGPTLANSTHHNVRLLMLDDQRLLLPHWAKVVLTDPEAAKYVHGIAVHWYLDFLAPAKATLGETHRLFPNTMLFASEACVGSKFWEQSVRLGSWDRGMQYSHSIITNLLYHVVGWTDWNLALNPEGGPNWVRNFVDSPIIVDITKDTFYKQPMFYHLGHFSKFIPEGSQRVGLVASQKNDLDAVALMHPDGSAVVVVLNRSSKDVPLTIKDPAVGFLETISPGYSIHTYLWRRQ
With B1 the “internalization rate in U937-derived macrophages (4-MU-glc activity assay), relative to imiglucerase” value was “velaglucerase alfa is internalized up to 2.5-fold more efficiently than imiglucerase”.
